Assay results published in the supplement of paper PMC7877785.
± gives the uncertainty stated by the source.

Assay: self-splicing fitness, log relative to wild type (ln ratio); higher = more splicing; Tetrahymena group I intron in knt gene, E. coli kanamycin selection, DiMSum; sequences stand for … in CUCUCU…GGAGGGAAAAGUUAUCAGGCAUGCACCUGGUAGCUAGUCUUUAAACCAAUAGAUUGCAUCGGUUUAAAAGGCAAGACCGUCAAAUUGCGGGAAAGGGGUCAACAGCCGUUCAGUACCAAGUCUCAGGGGAAACUUUGAGAUGGCCUUGCAAAGGGUAUGGUAAUAAGCUGACGGACAUGGUCCUAACCACGCAGCCAAGUCCUAAGUCAACAGAUCUUCUGUUGAUAUGGAUGCAGUUCACAGACUAAAUGUCGGUCGGGGAAGAUGUAUUCUUCUCAUAAGAUAUAGUCGGACCUCUCCUUAAUGGGAGCUAGCGGAUGAAGUGAUGCAACACUGGAGCCGCUGGGAACUAAUUUGUAUGCGAAAGUAUAUUGAUUAGUUUUGGAGUACUCGUGGUCG
Summary of the method: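 Pooled colonies went to amplicon sequencing on an Illumina HiSeq 2500 after six replicate transformations. The plates were LB agar with 100 μg/mL carbenicillin, 50 μM IPTG and 0.2% rhamnose, with or without 25 μg/mL kanamycin, incubated overnight at 37°C or 30°C. The E. coli BL21(DE3) library had all eight P1ex-region intron nucleotides randomised, the intron placed in the knt kanamycin-resistance gene on pET-22b(+). DiMSum fitness is the error-weighted combination of replicate fold changes, kanamycin against none, normalised to wild type.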

With CCUCAGCAAUAUUACGUCCA the “self-splicing fitness (ln)” value (30 °C) was -2.26 ± 0.14 and the “self-splicing fitness (ln)” value (37 °C) was -3 ± 0.29.

In the case of CCUCAGCAAUAUUACGUGGA, the “self-splicing fitness (ln)” value (30 °C) is reported as -3.84 ± 0.18 and the “self-splicing fitness (ln)” value (37 °C) is reported as -3.02 ± 0.2.

In the case of CCUGAGCAAUAUUACGAACU, the “self-splicing fitness (ln)” value (30 °C) is reported as -3.4 ± 0.13 and the “self-splicing fitness (ln)” value (37 °C) is reported as -2.42 ± 0.17.

In the case of CCUGAGCAAUAUUACGAAUA, the “self-splicing fitness (ln)” value (30 °C) is reported as -2.69 ± 0.38 and the “self-splicing fitness (ln)” value (37 °C) is reported as -1.35 ± 0.21.

With CCUGAGCAAUAUUACGAAUC the “self-splicing fitness (ln)” value (30 °C) was -3.69 ± 0.33 and the “self-splicing fitness (ln)” value (37 °C) was -2.34 ± 0.43.

In the case of CCUGAGCAAUAUUACGACAC, the “self-splicing fitness (ln)” value (30 °C) is reported as -2.49 ± 0.49 and the “self-splicing fitness (ln)” value (37 °C) is reported as -2.19 ± 0.28.

For CCUGAGCAAUAUUACGAGGU, the “self-splicing fitness (ln)” value (30 °C) was -2.72 ± 0.17 and the “self-splicing fitness (ln)” value (37 °C) was -1.99 ± 0.15.

In the case of CCUGAGCAAUAUUACGAUCA, the “self-splicing fitness (ln)” value (30 °C) is reported as -3.05 ± 0.32 and the “self-splicing fitness (ln)” value (37 °C) is reported as -2.42 ± 0.24.

For CCUGAGCAAUAUUACGAUGU, the “self-splicing fitness (ln)” value (30 °C) was -1.94 ± 0.084 and the “self-splicing fitness (ln)” value (37 °C) was -1.71 ± 0.098.

With CCUGAGCAAUAUUACGAUUC the “self-splicing fitness (ln)” value (30 °C) was -3.56 ± 0.27.

With CCUGAGCAAUAUUACGCCCA the “self-splicing fitness (ln)” value (30 °C) was -3.82 ± 0.47 and the “self-splicing fitness (ln)” value (37 °C) was -2.05 ± 0.34.

With CCUGAGCAAUAUUACGCCUC the “self-splicing fitness (ln)” value (30 °C) was -2.22 ± 0.29 and the “self-splicing fitness (ln)” value (37 °C) was -1.88 ± 0.3.

With CCUGAGCAAUAUUACGCCUG the “self-splicing fitness (ln)” value (30 °C) was -3.03 ± 0.26 and the “self-splicing fitness (ln)” value (37 °C) was -2.47 ± 0.25.

For CCUGAGCAAUAUUACGGACC, the “self-splicing fitness (ln)” value (37 °C) was -3.02 ± 0.43.

With CCUGAGCAAUAUUACGGAUC the “self-splicing fitness (ln)” value (30 °C) was -2.1 ± 0.17 and the “self-splicing fitness (ln)” value (37 °C) was -2.53 ± 0.22.

For CCUGAGCAAUAUUACGGCGC, the “self-splicing fitness (ln)” value (30 °C) was -4.1 ± 0.28.

In the case of CCUGAGCAAUAUUACGGGGU, the “self-splicing fitness (ln)” value (30 °C) is reported as -3.44 ± 0.24 and the “self-splicing fitness (ln)” value (37 °C) is reported as -3.06 ± 0.27.

For CCUGAGCAAUAUUACGGUCC, the “self-splicing fitness (ln)” value (30 °C) was -1.71 ± 0.36 and the “self-splicing fitness (ln)” value (37 °C) was -1.22 ± 0.43.

For CCUGAGCAAUAUUACGUAGG, the “self-splicing fitness (ln)” value (30 °C) was -2.55 ± 0.15 and the “self-splicing fitness (ln)” value (37 °C) was -2.24 ± 0.32.

In the case of CCUGAGCAAUAUUACGUAUG, the “self-splicing fitness (ln)” value (30 °C) is reported as -2.38 ± 0.11 and the “self-splicing fitness (ln)” value (37 °C) is reported as -1.56 ± 0.11.

In the case of CCUGAGCAAUAUUACGUCUG, the “self-splicing fitness (ln)” value (30 °C) is reported as -2.44 ± 0.14 and the “self-splicing fitness (ln)” value (37 °C) is reported as -1.4 ± 0.13.

With CCUUAGCAAUAUUACGAAGC the “self-splicing fitness (ln)” value (30 °C) was -3.24 ± 0.3 and the “self-splicing fitness (ln)” value (37 °C) was -1.56 ± 0.32.

With CCUUAGCAAUAUUACGACAU the “self-splicing fitness (ln)” value (30 °C) was -3.677 ± 0.028 and the “self-splicing fitness (ln)” value (37 °C) was -2.85 ± 0.043.

With CCUUAGCAAUAUUACGACCG the “self-splicing fitness (ln)” value (30 °C) was 0.294 ± 0.11 and the “self-splicing fitness (ln)” value (37 °C) was -0.348 ± 0.18.

In the case of CCUUAGCAAUAUUACGACCU, the “self-splicing fitness (ln)” value (30 °C) is reported as -2.79 ± 0.2 and the “self-splicing fitness (ln)” value (37 °C) is reported as -1.77 ± 0.29.

With CCUUAGCAAUAUUACGACGU the “self-splicing fitness (ln)” value (30 °C) was -2.25 ± 0.18 and the “self-splicing fitness (ln)” value (37 °C) was -1.9 ± 0.23.

For CCUUAGCAAUAUUACGAUUC, the “self-splicing fitness (ln)” value (30 °C) was -3.68 ± 0.25 and the “self-splicing fitness (ln)” value (37 °C) was -3.28 ± 0.47.

In the case of CCUUAGCAAUAUUACGCUCA, the “self-splicing fitness (ln)” value (30 °C) is reported as -3 ± 0.21 and the “self-splicing fitness (ln)” value (37 °C) is reported as -1.94 ± 0.3.

For CCUUAGCAAUAUUACGGACU, the “self-splicing fitness (ln)” value (30 °C) was -2.41 ± 0.19 and the “self-splicing fitness (ln)” value (37 °C) was -2.89 ± 0.43.

For CCUUAGCAAUAUUACGGAUG, the “self-splicing fitness (ln)” value (30 °C) was -1.72 ± 0.064 and the “self-splicing fitness (ln)” value (37 °C) was -0.271 ± 0.08.

With CCUUAGCAAUAUUACGGAUU the “self-splicing fitness (ln)” value (30 °C) was -3.31 ± 0.22 and the “self-splicing fitness (ln)” value (37 °C) was -2.38 ± 0.36.

With CCUUAGCAAUAUUACGGCAG the “self-splicing fitness (ln)” value (30 °C) was -1.83 ± 0.12 and the “self-splicing fitness (ln)” value (37 °C) was -2.73 ± 0.2.

With CCUUAGCAAUAUUACGGCCA the “self-splicing fitness (ln)” value (30 °C) was -3.46 ± 0.41 and the “self-splicing fitness (ln)” value (37 °C) was -1.69 ± 0.18.

With CCUUAGCAAUAUUACGGCCG the “self-splicing fitness (ln)” value (30 °C) was -1.85 ± 0.23 and the “self-splicing fitness (ln)” value (37 °C) was -0.27 ± 0.35.

With CCUUAGCAAUAUUACGGGAG the “self-splicing fitness (ln)” value (30 °C) was -3.19 ± 0.23 and the “self-splicing fitness (ln)” value (37 °C) was -3.67 ± 0.39.

In the case of CCUUAGCAAUAUUACGGUGA, the “self-splicing fitness (ln)” value (30 °C) is reported as -3.63 ± 0.35 and the “self-splicing fitness (ln)” value (37 °C) is reported as -2.91 ± 0.27.

In the case of CCUUAGCAAUAUUACGUAGC, the “self-splicing fitness (ln)” value (30 °C) is reported as -2.7 ± 0.18 and the “self-splicing fitness (ln)” value (37 °C) is reported as -1.8 ± 0.21.

For CCUUAGCAAUAUUACGUAGG, the “self-splicing fitness (ln)” value (30 °C) was -2.83 ± 0.14 and the “self-splicing fitness (ln)” value (37 °C) was -2.83 ± 0.18.

With CCUUAGCAAUAUUACGUAUA the “self-splicing fitness (ln)” value (37 °C) was -3.25 ± 0.37.

With CCUUAGCAAUAUUACGUCUC the “self-splicing fitness (ln)” value (37 °C) was -2.63 ± 0.3.

For CCUUAGCAAUAUUACGUGAC, the “self-splicing fitness (ln)” value (30 °C) was -3.61 ± 0.28 and the “self-splicing fitness (ln)” value (37 °C) was -2.68 ± 0.28.

For CCUUAGCAAUAUUACGUUUC, the “self-splicing fitness (ln)” value (30 °C) was -1.94 ± 0.18 and the “self-splicing fitness (ln)” value (37 °C) was -1.11 ± 0.46.

For CGAAAGCAAUAUUACGACGU, the “self-splicing fitness (ln)” value (30 °C) was -0.439 ± 0.067 and the “self-splicing fitness (ln)” value (37 °C) was 0.0287 ± 0.078.
